This note sets out measurements from PMC11413003.

Experiment [1] addresses complex III2 (CIII2) dimer of S. cerevisiae (S. cerevisiae) (UniProt P08067). The experiment in a line: cryo-EM structure; 10.5 uM supercomplex with 126 uM S. cerevisiae cyt. c (~1:12) in 20 mM KCl, 20 mM KH2PO4 pH 7.4, 0.01 % GDN; 3D classification with a mask over the cyt. c region.
Experiment [2] concerns the target S. cerevisiae CIII2CIV1/2 supercomplex (S. cerevisiae) (UniProt P08067).
Experiment [3] shares this target. The experiment in a line: cryo-EM structure; 10.5 uM supercomplex with 126 uM S. cerevisiae cyt. c (~1:12) in 20 mM KCl, 20 mM KH2PO4 pH 7.4, 0.01 % GDN; 3D classification with a mask over the cyt. c region.

With “complex III2 (CIII2) dimer of S. cerevisiae (from UniProt P08067 31-215; P07143 62-309; P00127 1-147; P22289 1-66)”, the stoichiometry N in experiment [1] stood at 2. For “cytochrome c from S. cerevisiae (from UniProt P00044 1-109) (natural protein)”, the QH2:O2 oxidoreductase activity (O2 reduction upon addition of QH2) of the supercomplex, cyt. c varied up to ~50 uM, 20 mM KCl in experiment [2] amounted to 50 electrons/s. Further, the stoichiometry N (cyt. c per CIII monomer-CIV pair) in experiment [3] came to 2.
